Experimental data published in paper PMC8825253, “pHBMT1, a BAHD-family monolignol acyltransferase, mediates lignin acylation in poplar” (Plant Physiology, 2021).

Assays:
Experiment in all cases: LC-MS product quantification, Lineweaver-Burk
Format in all cases: biochemical, Populus trichocarpa
[1] = system: CC(C)(COP(=O)(O)OP(=O)(O)OC[C@H]1O[C@@H](n2cnc3c(N)ncnc32)[C@H](O)[C@@H]1OP(=O)(O)O)[C@@H](O)C(=O)NCCC(=O)NCCSC(=O)c1ccc(O)cc1; details: saturating sinapyl alcohol, 50 mM sodium phosphate pH 6, 1 mM DTT, wheatgerm cell-free enzyme
Text: (§1) LC-MS product quantification, Lineweaver-Burk on pHBMT1 (Potri.001G448000)

COc1cc(/C=C/CO)cc(OC)c1O = details: saturating p-hydroxybenzoyl-CoA, 50 mM sodium phosphate pH 6, 1 mM DTT, wheatgerm cell-free enzyme
Text: as §1

COc1cc(/C=C/CO)ccc1O = details: saturating p-hydroxybenzoyl-CoA, 50 mM sodium phosphate pH 6, 1 mM DTT, wheatgerm cell-free enzyme
Text: as §1

pHBMT1 (Potri.001G448000) (Populus trichocarpa)
Km [1]: 448 ± 21 µM
kcat [1]: 0.18 ± 0.03 s⁻¹
kcat/Km [1]: 400 M⁻¹ s⁻¹
Km (COc1cc(/C=C/CO)cc(OC)c1O): 300 ± 72 µM
kcat (COc1cc(/C=C/CO)cc(OC)c1O): 0.13 ± 0.01 s⁻¹
kcat/Km (COc1cc(/C=C/CO)cc(OC)c1O): 490 M⁻¹ s⁻¹
Km (COc1cc(/C=C/CO)ccc1O): 954 ± 411 µM
kcat (COc1cc(/C=C/CO)ccc1O): 0.1 ± 0.02 s⁻¹
